Test results published in paper PMC6097844.

Biological target: Bh-RNase HC (RNase H1 catalytic domain) (Bacillus halodurans, UniProt Q9KEI9 59-196)
Experiment: X-ray crystallography

Chain of Bh-RNase HC (RNase H1 catalytic domain) (Q9KEI9 59-196): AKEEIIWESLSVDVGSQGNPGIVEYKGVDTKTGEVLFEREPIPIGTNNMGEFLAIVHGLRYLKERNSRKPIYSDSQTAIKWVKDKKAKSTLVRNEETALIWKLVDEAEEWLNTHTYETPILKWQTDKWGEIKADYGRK

B1: RNA/DNA hybrid 6-mer (DNA:RNA)
RNA: ACAUCG
DNA: CGATGT
modifications: strand 1 printed ArCrArUrCG: ribonucleotides at 2-5, deoxy A1 and G6; strand 2 all DNA
binding result: binds
